In patent US11052132B2, “Methods and compositions for treating cystic fibrosis” (PHASEBIO PHARMACEUTICALS, INC., priority 2014, dated 2021):

B1: PB1046: long lasting, stable VIP therapeutic which includes ELP sequences; VIP-ELP fusion, SEQ ID NO: 15 (protein)
chain: MHSDAVFTDNYTRLRKQMAVKKYLNSILNVPGVGVPGVGVPGGGVPGAGVPGVGVPGVGVPGVGVPGGGVPGAGVPGGGVPGVGVPGVGVPGGGVPGAGVPGVGVPGVGVPGVGVPGGGVPGAGVPGGGVPGVGVPGVGVPGGGVPGAGVPGVGVPGVGVPGVGVPGGGVPGAGVPGGGVPGVGVPGVGVPGGGVPGAGVPGVGVPGVGVPGVGVPGGGVPGAGVPGGGVPGVGVPGVGVPGGGVPGAGVPGVGVPGVGVPGVGVPGGGVPGAGVPGGGVPGVGVPGVGVPGGGVPGAGVPGVGVPGVGVPGVGVPGGGVPGAGVPGGGVPGVGVPGVGVPGGGVPGAGVPGVGVPGVGVPGVGVPGGGVPGAGVPGGGVPGVGVPGVGVPGGGVPGAGVPGVGVPGVGVPGVGVPGGGVPGAGVPGGGVPGVGVPGVGVPGGGVPGAGVPGVGVPGVGVPGVGVPGGGVPGAGVPGGGVPGVGVPGVGVPGGGVPGAGVPGVGVPGVGVPGVGVPGGGVPGAGVPGGGVPGVGVPGVGVPGGGVPGAGVPGVGVPGVGVPGVGVPGGGVPGAGVPGGGVPGVGVPGVGVPGGGVPGAGVPGVGVPGVGVPGVGVPGGGVPGAGVPGGGVPGWP
modifications: M-VIP ELP1-120
B2: PB1120: long lasting, stable VIP therapeutic which includes ELP sequences; VIP-ELP fusion, SEQ ID NO: 20 (protein)
chain: HSDAVFTDNYTRLRKQMAVKKYLNSILNVPGVGVPGVGVPGGGVPGAGVPGVGVPGVGVPGVGVPGGGVPGAGVPGGGVPGVGVPGVGVPGGGVPGAGVPGVGVPGVGVPGVGVPGGGVPGAGVPGGGVPGVGVPGVGVPGGGVPGAGVPGVGVPGVGVPGVGVPGGGVPGAGVPGGGVPGVGVPGVGVPGGGVPGAGVPGVGVPGVGVPGVGVPGGGVPGAGVPGGGVPGVGVPGVGVPGGGVPGAGVPGVGVPGVGVPGVGVPGGGVPGAGVPGGGVPGVGVPGVGVPGGGVPGAGVPGVGVPGVGVPGVGVPGGGVPGAGVPGGGVPGVGVPGVGVPGGGVPGAGVPGVGVPGVGVPGVGVPGGGVPGAGVPGGGVPGVGVPGVGVPGGGVPGAGVPGVGVPGVGVPGVGVPGGGVPGAGVPGGGVPGVGVPGVGVPGGGVPGAGVPGVGVPGVGVPGVGVPGGGVPGAGVPGGGVPGVGVPGVGVPGGGVPGAGVPGVGVPGVGVPGVGVPGGGVPGAGVPGGGVPGVGVPGVGVPGGGVPGAGVPGVGVPGVGVPGVGVPGGGVPGAGVPGGGVPGVGVPGVGVPGGGVPGAGVPGVGVPGVGVPGVGVPGGGVPGAGVPGGGVPGWP
modifications: VIP ELP1-120

How the values were obtained:
[1] = biological target: T1, F508del-CFTR (Homo sapiens, UniProt P13569, DEL508-508); assay: Iodide efflux assay on JME/CF15 cells (rescue of F508del-CFTR function); assay type: cell-based; settings: for effect on iodide efflux, alone / plateau concentration (iodide efflux rate) / EC50: JME/CF15 cells at 37° C.; for effect on iodide efflux, alone: acute treatment with 1 μM VX770 alone (FIG. 6A); for effect on iodide efflux in combination with VX-770: 350 nM PB1046 18 hours or 140 nM PB1120 24 hours, plus acute 1 μM VX-770 (FIG. 6B, C); for correct and/or potentiate the activity of F508del-CFTR (iodide efflux) compared with VX-809 and VX-661: 37° C., 900 nM VIP 24 h, 1 μM PB1120 24 h, 1.2 μM PB1046 18 h, versus 1 μM VX809 24 h, 3 μM VX661 24 h (FIG. 5); for plateau concentration (iodide efflux rate) / EC50: pre-incubated 2 hours at 30-3,500 nM, then cAMP activator cocktail, n=3-5; for EC50: read-out: EC50 (iodide efflux rate)
T1 construct: A human nasal epithelial cell line JME/CF15, derived from a Cystic Fibrosis patient homozygous for the F508del mutation; endogenous in cells; host or cells: JME/CF15 human nasal epithelial cell line (CF patient, F508del homozygous)
Method: A human nasal epithelial cell line JME/CF15, derived from a Cystic Fibrosis patient homozygous for the F508del mutation (Jefferson (1990)) was used to evaluate the effect of VIP compounds on CFTR protein function. Cells were cultured at 37° C. with at 5% CO2— 95% humidity in DMEM-F12 with 10% FBS and supplemented with transferrin (5 μg/ml), triiodothyronine (2 nM), insulin (5 μg/ml), hydrocortisone (1.1 μM), EGF (1.64 nM), epinephrine (5.5 μM), and adenine (18 μM). Cells were maintained at 37° C. and incubated with […] VIP, 1.2 μM PB1046 (SEQ ID NO: 15), or 1 μM PB1120 (SEQ ID NO: 20) for 18 or 24 hours before the assaying for iodide efflux. For comparison, cells were incubated with the CFTR correctors VX-809 (lumacaftor) or VX-661.
To evaluate the effect of test compounds on CFTR protein function, the activity of the CFTR chloride channel was determined by studying the efflux of iodide ions using an iodide sensitive electrode. Cells were incubated with NaI loading buffer (136 mM NaI, 3 mM KNO3, 2 mM Ca(NO3), 11 mM glucose, 20 mM HEPES, pH 7.4) for 1 hour at room temperature. Extracellular NaI solution was then removed and replaced with efflux buffer in which NaI was replaced with NaNO3. Samples were taken and replaced at 1 minute intervals. The first 3 samples taken before addition of the CFTR activation cocktail (time 0-2 min) were used to establish a stable baseline of ion efflux. CFTR activation cocktail (150 μM cpt-cAMP+1 mM IBMX+10 μM forskolin) was included in the efflux buffer from time 3 minutes. NaI concentration was then measured using an iodide sensitive electrode moved over each sample by a computerised autosampler and the NaI efflux rate constant k (min^−1) was calculated. Iodide efflux peaks (maximum efflux rate during stimulation—basal level) were compared.
Iodide efflux rates were measured on JME/CF15 cells maintained at 37° C. and pre-incubated with VIP, PB1046, or PB1120 at 30-3,500 nM for 2 hours. […] Rescued F508del-CFTR was stimulated by a cAMP activator cocktail added to the efflux buffer. […] CFTRinh172 (20 μM) was included in the incubation, confirming that the iodide efflux was mediated by CFTR.
To study the effects of administration of PB1120 or PB1046 together with CFTR potentiators or CFTR correctors, iodide efflux assays were performed as described in Example 1.

[2] = test system: F508del-CFTR; assay: Immunoblotting / immunostaining of F508del-CFTR maturation and membrane expression in JME/CF15 cells; assay type: cell-based, human; settings: JME/CF15 cells at 37° C., incubated with compound for 24 hours (FIG. 4)
Method: JME/CF15 cells were immunostained for CFTR (A).
Immunoblotting was performed to visualize the […] of the F508del-CFTR in the epithelial cells treated with VIP, PB1120, or PB1046.

T1 sequence (P13569 with tags, fused parts or gaps DEL508-508): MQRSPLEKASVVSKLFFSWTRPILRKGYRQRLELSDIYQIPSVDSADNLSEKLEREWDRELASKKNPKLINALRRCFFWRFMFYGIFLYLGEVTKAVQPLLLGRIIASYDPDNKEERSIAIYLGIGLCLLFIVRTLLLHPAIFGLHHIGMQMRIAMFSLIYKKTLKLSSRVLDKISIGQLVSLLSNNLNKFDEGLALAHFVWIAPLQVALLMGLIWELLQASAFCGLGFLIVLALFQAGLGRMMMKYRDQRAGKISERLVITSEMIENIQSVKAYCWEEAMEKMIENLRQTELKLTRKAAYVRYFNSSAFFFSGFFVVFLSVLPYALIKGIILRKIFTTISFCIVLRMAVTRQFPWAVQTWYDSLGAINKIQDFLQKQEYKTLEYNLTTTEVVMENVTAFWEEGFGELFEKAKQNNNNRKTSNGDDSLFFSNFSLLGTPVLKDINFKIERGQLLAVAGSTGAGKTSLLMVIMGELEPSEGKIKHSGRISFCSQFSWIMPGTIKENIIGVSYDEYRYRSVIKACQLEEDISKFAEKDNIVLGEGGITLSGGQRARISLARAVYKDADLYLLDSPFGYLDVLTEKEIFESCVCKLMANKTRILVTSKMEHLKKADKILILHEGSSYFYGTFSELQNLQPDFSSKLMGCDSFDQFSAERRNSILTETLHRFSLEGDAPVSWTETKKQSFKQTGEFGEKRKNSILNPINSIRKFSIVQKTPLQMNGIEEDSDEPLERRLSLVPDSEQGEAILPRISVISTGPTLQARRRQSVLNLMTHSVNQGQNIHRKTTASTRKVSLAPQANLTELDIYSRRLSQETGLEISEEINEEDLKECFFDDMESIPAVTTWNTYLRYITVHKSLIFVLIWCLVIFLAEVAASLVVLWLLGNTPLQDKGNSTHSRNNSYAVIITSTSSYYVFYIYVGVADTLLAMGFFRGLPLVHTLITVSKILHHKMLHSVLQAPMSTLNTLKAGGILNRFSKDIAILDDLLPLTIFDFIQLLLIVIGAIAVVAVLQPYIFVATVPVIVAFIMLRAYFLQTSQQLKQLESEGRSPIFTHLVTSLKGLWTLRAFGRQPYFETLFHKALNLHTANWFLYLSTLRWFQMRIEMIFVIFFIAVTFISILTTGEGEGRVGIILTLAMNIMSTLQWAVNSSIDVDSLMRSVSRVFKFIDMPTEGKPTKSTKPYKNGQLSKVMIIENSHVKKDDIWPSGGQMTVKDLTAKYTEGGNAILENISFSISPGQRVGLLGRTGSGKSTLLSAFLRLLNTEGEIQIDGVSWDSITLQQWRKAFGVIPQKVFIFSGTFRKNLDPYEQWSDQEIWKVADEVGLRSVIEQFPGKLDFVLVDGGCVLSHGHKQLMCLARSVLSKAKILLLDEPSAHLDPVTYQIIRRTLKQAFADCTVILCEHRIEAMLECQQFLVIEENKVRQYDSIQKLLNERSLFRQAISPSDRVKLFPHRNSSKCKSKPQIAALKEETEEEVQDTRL

Molecule	iodide efflux activity rescued by VIP therapeutics when the CFTR inhibitor is included ([1]; CFTRinh172 20 μM, 30 minutes before and during the efflux experiments (FIG. 3))	effect on iodide efflux, alone [1]	effect on iodide efflux, alone ([1]; listed as VX770)	F508del-CFTR maturation and membrane expression [2]	effect on iodide efflux in combination with VX-770 [1]	correct and/or potentiate the activity of F508del-CFTR (iodide efflux) compared with VX-809 and VX-661 [1]	plateau concentration (iodide efflux rate) [1] [nM]	EC50 [1] [nM]	effect on iodide efflux in combination with VX-809 ([1]; 1 μM PB1120 and 1 μM VX-809 for 24 hours (FIG. 7))
O=C(O)c1ccc(/C=C2\SC(=S)N(c3cccc(C(F)(F)F)c3)C2=O)cc1 [CFTRinh172, reference compound]	significantly reduced	–	–	–	–	–	–	–	–
CC(C)(C)c1cc(C(C)(C)C)c(NC(=O)c2c[nH]c3ccccc3c2=O)cc1O [VX-770, ivacaftor, reference compound]	–	no effect	did not produce any significant stimulation	–	–	–	–	–	–
B1	–	–	–	corrected	synergistic effect	equivalent or greater extent than VX-809 and VX-661	1200	355	–
B2	–	–	–	corrected	synergistic effect	equivalent or greater extent than VX-809 and VX-661	1000	140	synergism
